Data: patent US20190016828A1 (Hoffmann-La Roche, published 2019)

Key:
[1] = target: T1, human neonatal Fc-receptor (FcRn) (human, UniProt P55899 24-297; P61769 21-119); assay: FcRn affinity chromatography, anti-IGF-1R KiH antibody
T1 construct: also called human FcRn; huFcRn

[2] = target: T1, human neonatal Fc-receptor (FcRn); assay: SPR (BIAcore), FcRn immobilized on a CM5 chip, pH 6.0, 200 nM sample
Protocol: The binding properties of wild-type antibody and the mutants to FcRn were analyzed by surface plasmon resonance (SPR) technology using a BIAcore T100 instrument (BIAcore AB, Uppsala, Sweden). […] In the current assay, the FcRn receptor was immobilized onto a BIAcore CM5-biosensor chip (GE Healthcare Bioscience, Uppsala, Sweden) via amine coupling to a level of 400 Response units (RU). The assay was carried out at room temperature with PBS, 0.05% Tween20 pH 6.0 (GE Healthcare Bioscience) as running and dilution buffer. 200 nM of samples were injected at a flow rate of 50 μL/min at room temperature. Association time was 180 sec., dissociation phase took 360 sec. Regeneration of the chip surface was reached by a short injection of HBS-P, pH 8.0. Evaluation of SPR-data was performed by comparison of the biological response signal height at 180 sec. after injection and at 300 sec. after injection. The corresponding parameters are the RU max level (180 sec. after injection) and late stability (300 sec. after end of injection).

T1 sequence (P55899 24-297 limits assumed, chain 1 of 2): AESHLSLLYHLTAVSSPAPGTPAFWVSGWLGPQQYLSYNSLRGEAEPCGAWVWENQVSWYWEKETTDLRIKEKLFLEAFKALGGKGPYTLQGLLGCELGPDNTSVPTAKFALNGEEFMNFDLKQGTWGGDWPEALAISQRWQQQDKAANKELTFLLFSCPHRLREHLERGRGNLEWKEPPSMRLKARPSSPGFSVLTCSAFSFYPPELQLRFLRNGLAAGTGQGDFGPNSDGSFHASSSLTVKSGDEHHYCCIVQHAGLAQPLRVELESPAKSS
T1 sequence (P61769 21-119 limits assumed, chain 2 of 2): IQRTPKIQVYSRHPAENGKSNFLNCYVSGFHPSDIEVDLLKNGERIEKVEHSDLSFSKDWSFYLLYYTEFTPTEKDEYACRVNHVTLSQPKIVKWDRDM

Row | Binder | retention time on FcRn affinity column [1] [min] | binding result [2]
1 | IGF-1R 0034 (antibody, human IgG1, kappa, tied by description; also called <IgF-1R> IgG1 knob wt, hole I253A, H310A, H435A; anti-IGF-1R antibody, one chain with I253A/H310A/H435A) light: not shown heavy 1: not shown heavy 2: QVELVESGGGVVQPGRSQRLSCAASGFTFSSYGMHWVRQAPGKGLEWVAIIWFDGSSTYYADSVRGRFTISRDNSKNTLYLQMNSLRAEDTAVYFCARELGRRYFDLWGRGTLVSVSSASTKGPSVFPLAPSSKSTSGGTAALGCLVKDYFPEPVTVSWNSGALTSGVHTFPAVLQSSGLYSLSSVVTVPSSSLGTQTYICNVNHKPSNTKVDKKVEPKSCDKTHTCPPCPAPELLGGPSVFLFPPKPKDTLMASRTPEVTCVVVDVSHEDPEVKFNWYVDGVEVHNAKTKPREEQYNSTYRVVSVLTVLAQDWLNGKEYKCKVSNKALPAPIEKTISKAKGQPREPQVCTLPPSRDELTKNQVSLSCAVKGFYPSDIAVEWESNGQPENNYKTTPPVLDSDGSFFLVSKLTVDKSRWQQGNVFSCSVMHEALHNAYTQKSLSLSPGK | 42 | 
2 | IGF-1R 0036 (antibody, human IgG1, kappa, tied by description; also called <IGF-1R> IgG1 knob wt, hole M252Y, S254T, T256E; anti-IGF-1R antibody, one chain with M252Y/S254T/T256E) light: not shown heavy 1: not shown heavy 2: QVELVESGGGVVQPGRSQRLSCAASGFTFSSYGMHWVRQAPGKGLEWVAIIWFDGSSTYYADSVRGRFTISRDNSKNTLYLQMNSLRAEDTAVYFCARELGRRYFDLWGRGTLVSVSSASTKGPSVFPLAPSSKSTSGGTAALGCLVKDYFPEPVTVSWNSGALTSGVHTFPAVLQSSGLYSLSSVVTVPSSSLGTQTYICNVNHKPSNTKVDKKVEPKSCDKTHTCPPCPAPELLGGPSVFLFPPKPKDTLYITREPEVTCVVVDVSHEDPEVKFNWYVDGVEVHNAKTKPREEQYNSTYRVVSVLTVLHQDWLNGKEYKCKVSNKALPAPIEKTISKAKGQPREPQVCTLPPSRDELTKNQVSLSCAVKGFYPSDIAVEWESNGQPENNYKTTPPVLDSDGSFFLVSKLTVDKSRWQQGNVFSCSVMHEALHNHYTQKSLSLSPGK | 57.6 | 
3 | IGF-1R 0037 (antibody, human IgG1, kappa, tied by description; also called <IGF-1R> IgG1 knob wt, hole L251D, L314D, L432D; anti-IGF-1R antibody, one chain with L251D/L314D/L432D) light: not shown heavy 1: not shown heavy 2: QVELVESGGGVVQPGRSQRLSCAASGFTFSSYGMHWVRQAPGKGLEWVAIIWFDGSSTYYADSVRGRFTISRDNSKNTLYLQMNSLRAEDTAVYFCARELGRRYFDLWGRGTLVSVSSASTKGPSVFPLAPSSKSTSGGTAALGCLVKDYFPEPVTVSWNSGALTSGVHTFPAVLQSSGLYSLSSVVTVPSSSLGTQTYICNVNHKPSNTKVDKKVEPKSCDKTHTCPPCPAPELLGGPSVFLFPPKPKDTDMISRTPEVTCVVVDVSHEDPEVKFNWYVDGVEVHNAKTKPREEQYNSTYRVVSVLTVLHQDWDNGKEYKCKVSNKALPAPIEKTISKAKGQPREPQVCTLPPSRDELTKNQVSLSCAVKGFYPSDIAVEWESNGQPENNYKTTPPVLDSDGSFFLVSKLTVDKSRWQQGNVFSCSVMHEADHNHYTQKSLSLSPGK | 40.9 | 
4 | IGF-1R 0035 (antibody, human IgG1, kappa, also called <IGF-1R> IgG1 knob wt, hole H310A, H433A, Y436A; IGF-1R 0035 (with HHY-AAA mutation in one Fc-region polypeptide)) light: not shown heavy 1: not shown heavy 2: QVELVESGGGVVQPGRSQRLSCAASGFTFSSYGMHWVRQAPGKGLEWVAIIWFDGSSTYYADSVRGRFTISRDNSKNTLYLQMNSLRAEDTAVYFCARELGRRYFDLWGRGTLVSVSSASTKGPSVFPLAPSSKSTSGGTAALGCLVKDYFPEPVTVSWNSGALTSGVHTFPAVLQSSGLYSLSSVVTVPSSSLGTQTYICNVNHKPSNTKVDKKVEPKSCDKTHTCPPCPAPELLGGPSVFLFPPKPKDTLMISRTPEVTCVVVDVSHEDPEVKFNWYVDGVEVHNAKTKPREEQYNSTYRVVSVLTVLAQDWLNGKEYKCKVSNKALPAPIEKTISKAKGQPREPQVCTLPPSRDELTKNQVSLSCAVKGFYPSDIAVEWESNGQPENNYKTTPPVLDSDGSFFLVSKLTVDKSRWQQGNVFSCSVMHEALANHATQKSLSLSPGK | 42.4 | 
5 | YTE-mutant of anti-IGF-1R antibody (antibody, human IgG1, kappa, IgG1; also called <IGF-1R> IgG1 with M252Y, S254T, T256E; anti-IGF-1R IgG1 with YTE mutation) light: not shown heavy: QVELVESGGGVVQPGRSQRLSCAASGFTFSSYGMHWVRQAPGKGLEWVAIIWFDGSSTYYADSVRGRFTISRDNSKNTLYLQMNSLRAEDTAVYFCARELGRRYFDLWGRGTLVSVSSASTKGPSVFPLAPSSKSTSGGTAALGCLVKDYFPEPVTVSWNSGALTSGVHTFPAVLQSSGLYSLSSVVTVPSSSLGTQTYICNVNHKPSNTKVDKKVEPKSCDKTHTCPPCPAPELLGGPSVFLFPPKPKDTLYITREPEVTCVVVDVSHEDPEVKFNWYVDGVEVHNAKTKPREEQYNSTYRVVSVLTVLHQDWLNGKEYKCKVSNKALPAPIEKTISKAKGQPREPQVYTLPPSRDELTKNQVSLTCLVKGFYPSDIAVEWESNGQPENNYKTTPPVLDSDGSFFLYSKLTVDKSRWQQGNVFSCSVMHEALHNHYTQKSLSLSPG |  | binds
